Assay results: US11155602B2, “Polypeptides targeting HIV fusion” (priority 2015, dated 2021)

tested on: NL-Rluc virus; assay: Combinectin potency assay: antiviral EC50, NL-Rluc virus in MT-2 cells, luciferase readout; format: cell-based, HIV-1; conditions: Anti-N17 Adnectin - HIV fusion peptide inhibitor Combinectin, Table 4
Summary of the method: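 MT-2 cells infected with replication-competent NL-Rluc HIV (nef replaced by Renilla luciferase) at MOI 0.01 for 1 h, then added to threefold-diluted peptides (11 concentrations, triplicate). After 4–5 days, luciferase measured by Dual Luciferase; EC50 relative to no-peptide wells.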

| Molecule | EC50 |
| --- | --- |
| 411 (protein, Anti-N17 Adnectin - HIV fusion peptide inhibitor Combinectin) MGHHHHHHGGSVSDVPRDLEVVAATPTSLLISWEYKVNAYRYYRITYGETGGNSPVQEFTVPSVLSTATISGLKPGVDYTITVYAVTYGVDSDPISINYRTEIDGGGGSGGGGSGGGGSGGGGTIAEYAARIEALIRAAQEQQEKNEAALRELYKWAS | 4340 nM |
| 412 (protein, Anti-N17 Adnectin - HIV fusion peptide inhibitor Combinectin) MGHHHHHHGGSVSDVPRDLEVVAATPTSLLISWEYKVNAYRYYRITYGETGGNSPVQEFTVPSVLSTATISGLKPGVDYTITVYAVTYGVDSDPISINYRTEIDGGGGSGGGGSGGGGSGGGGSEYEARIEALIRAAQEQQEKNEAALRELYKWAS | 2980 nM |
| 428 (protein, Anti-N17 Adnectin - HIV fusion peptide inhibitor Combinectin) MGHHHHHHTSGVSDVPRDLEVVAATPTSLLISWDAPAVTVGWYHIGYNVEGEPASYQYFRVPGSKSTATISGLKPGVEYMIFVNAVTGSGAREEFSLPISINYRTEIDGGGGSGGGGSGGGGSGGGGSEYEARIEALIRAAQEQQEKNEAALRELDKWTGVWGNYEKV | 50 nM |
| 414 (protein, Anti-N17 Adnectin - HIV fusion peptide inhibitor Combinectin) MGHHHHHHTSGVSDVPRDLEVVAATPTSLLISWDAPAVTVGWYHIGYNVEGEPASYQYFRVPGSKSTATISGLKPGVEYMIFVNAVTGSGAREEFSLPISINYRTEIDGGGGSGGGGSGGGGSGGGGSEYEARIEALIRAAQEQQEKNEAALRELDKWTGVWGNYEKV | 4 nM |
| 413 (protein, Anti-N17 Adnectin - HIV fusion peptide inhibitor Combinectin) MGHHHHHHGVSDVPRDLEVVAATPTSLLISWKYKVHPYRYYRITYGETGGNSPVQEFTVPSVLSTATISGLKPGVDYTITVYAVTYGVNSLPISINYRTEIDGGGGSGGGGSGGGGSGGGGTEYEARIEALIRAAQEQQEKNEAALRELKEWASIWN | 6 nM |
| 415 (protein, Anti-N17 Adnectin - HIV fusion peptide inhibitor Combinectin) MGHHHHHHGVSDVPRDLEVVAATPTSLLISWDAPAVTVRYYRITYGETGGNSPVQEFTVPGSKSTATISGLKPGVDYTITVYAVTGRGESPASSKPISINYRTEIDGGGGSGGGGSGGGGSGGGGSRIEALIRAAQEQQEKNEAALRELFKWAS | > 1000 nM |
| 418 (protein, Anti-N17 Adnectin - HIV fusion peptide inhibitor Combinectin) MGHHHHHHGVSDVPRDLEVVAATPTSLLISWDAPAVTVRYYRITYGETGGNSPVQEFTVPGSKSTATISGLKPGVDYTITVYAVTGRGESPASSKPISINYRTEIDGGGGSGGGGSGGGGSGGGGSRIEALIRAAQEQQEKNEAALRELLKWAS | 218 nM |
| 417 (protein, Anti-N17 Adnectin - HIV fusion peptide inhibitor Combinectin) MGHHHHHHGVSDVPRDLEVVAATPTSLLISWDAPAVTVRYYRITYGETGGNSPVQEFTVPGSKSTATISGLKPGVDYTITVYAVTGRGESPASSKPISINYRTEIDGGGGSGGGGSGGGGSGGGGSRIEALIRAAQEQQEKNEAALRELYKWAS | 428 nM |
| 416 (protein, Anti-N17 Adnectin - HIV fusion peptide inhibitor Combinectin) MGHHHHHHGVSDVPRDLEVVAATPTSLLISWDAPAVTVRYYRITYGETGGNSPVQEFTVPGSKSTATISGLKPGVDYTITVYAVTGRGESPASSKPISINYRTEIDGGGGSGGGGSGGGGSGGGGSRIEALIRAAQEQQQKNEAALRELDKWAS | > 1000 nM |

same assay, conditions: Anti-N17 Adnectin, Table 3

| Molecule | EC50 |
| --- | --- |
| 346 (protein, Adnectin) MGHHHHHHGGSVSDVPRDLEVVAATPTSLLISWEYKVHPYRYYRITYGETGGNSPVQEFTVPSVLSTATISGLKPGVDYTITVYAVTYGDDSAPISIQYRTEID | 83 nM |
| 363 (protein, Adnectin) MGHHHHHHGGSVSDVPRDLEVVAATPTSLLISWEYKVHPYRYYRITYGETGGNSPVQEFTVPSVLSTATISGLKPGVDYTITVYAVTYGNDSAPISINYRTEID | 130 nM |
| 362 (protein, Adnectin) MGHHHHHHGGSVSDVPRDLEVVAATPTSLLISWEYKVHPYRYYRITYGETGGNSPVQEFTVPSVLSTAKLSGLKPGVDYTITVYAVTYGDDSAPISINYRTEID | 121 nM |
| 352 (protein, Adnectin) MGHHHHHHGGSVSDVPRDLEVVAATPTSLLISWEYKVHPYRYYRITYGETGGNSPVQEFTVPSVLSTATISGLKPGVDYTITVYAVTYGDLSAPISINYRTEID | 77 nM |
| 353 (protein, Adnectin) MGHHHHHHGGSVSDVPRDLEVVAATPTSLLISWEYKVHPYRYYRITYGETGGNSPVQEFTVPSVLSTATISGLKPGVDYTITVYAVTYGDDSGPISINYRTEID | 19 nM |
| 357 (protein, Adnectin) MGHHHHHHGGSVSDVPRDLEVVAATPTSLLISWEYKVHPYRYYRITYGETGGNSPVQEFTVPSVLSTATISGLKPGVDYTITVYAVTYGDLSAPISINYRTEID | 178 nM |
| 361 (protein, Adnectin) MGHHHHHHGGSVSDVPRDLEVVAATPTSLLISWEYKVYHGRYYRITYGETGGNSPVQEFTVPSVLSTATISGLKPGVDYTITVYAVTYGDDSAPISINYRTEID | > 1000 nM |
| 354 (protein, Adnectin) MGHHHHHHGGSVSDVPRDLEVVAATPTSLLISWEYKVSAWRYYRITYGETGGNSPVQEFTVPSVLSTATISGLKPGVDYTITVYAVTYGDDSAPISINYRTEID | > 1000 nM |
| 349 (protein, Adnectin) MGHHHHHHGGSVSDVPRDLEVVAATPTSLLISWEYKVYAYRYYRITYGETGGNSPVQEFTVPSVLSTATISGLKPGVDYTITVYAVTYGDDSAPISINYRTEID | > 1000 nM |
| 360 (protein, Adnectin) MGHHHHHHGGSVSDVPRDLEVVAATPTSLLISWEYKVTGYRYYRITYGETGGNSPVQEFTVPSVLSTATISGLKPGVDYTITVYAVTYGDDSAPISINYRTEID | > 1000 nM |
| 347 (protein, Adnectin) MGHHHHHHGGSVSDVPRDLEVVAATPTSLLISWEYKVNYRRYYRITYGETGGNSPVQEFTVPSVLSTATISGLKPGVDYTITVYAVTYGDDSAPISINYRTEID | > 1000 nM |
| 356 (protein, Adnectin) MGHHHHHHGGSVSDVPRDLEVVAATPTSLLISWEYKVHPYRYYRITYGETGGNSPVQEFTVPSVLSTAELSGLKPGVDYTITVYAVTYGDDSAPISINYRTEID | 31 nM |
| 348 (protein, Adnectin) MGHHHHHHGGSVSDVPRDLEVVAATPTSLLISWEYKVSTWRYYRITYGETGGNSPVQEFTVPSVLSTATISGLKPGVDYTITVYAVTYGDDSAPISINYRTEID | > 1000 nM |
| 355 (protein, Adnectin) MGHHHHHHGGSVSDVPRDLEVVAATPTSLLISWEYKVSTYRYYRITYGETGGNSPVQEFTVPSVLSTATISGLKPGVDYTITVYAVTYGDDSAPISINYRTEID | > 1000 nM |
| 358 (protein, Adnectin) MGHHHHHHGGSVSDVPRDLEVVAATPTSLLISWEYKVHPYRYYRITYGETGGNSPVQEFTVPSVLSTATISGLKPGVDYTITVYAVTYGDDSTPISINYRTEID | > 1000 nM |
| 359 (protein, Adnectin) MGHHHHHHGGSVSDVPRDLEVVAATPTSLLISWEYKVSAYRYYRITYGETGGNSPVQEFTVPSVLSTATISGLKPGVDYTITVYAVTYGDDSAPISINYRTEID | > 1000 nM |
| 351 (protein, Adnectin) MGHHHHHHGGSVSDVPRDLEVVAATPTSLLISWEYKVHPYRYYRITYGETGGNSPVQAFTVPSVLSTATISGLKPGVDYTITVYAVTYGKDSAPISINYRTEID | 215 nM |
| 350 (protein, Adnectin) MGHHHHHHGGSVSDVPRDLEVVAATPTSLLISWEYKVHPYRYYRITYGETGGNSPVQTFTVPSVLSTATISGLKPGVDYTITVYAVTYGDDSAPISINYRTEID | 191 nM |
| 138 (protein, Adnectin) MGVSDVPRDLEVVAATPTSLLISWHYPFEGYVTYYRITYGETGGNSHVQEFTVPVGYTTATISGLKPGVDYTITVYAVTSSKGYVYFPISINYRTEIDKPSQHHHHHH | 3300 nM |
| 137 (protein, Adnectin) MGVSDVPRDLEVVAATPTSLLISWHDGIGEERYYRITYGETGGNSPVQEFTVPMDDITATISGLKPGVDYTITVYAVTVGDVISVLHEPISINYRTEIDKPSQHHHHHH | 80 nM |
